Key:
[1] = target: MIF (macrophage migration inhibitory factor) (UniProt P14174 P14174:2-115); test: SPR; specificity control; details: tags: His tag; ATGen
[2] = target: BSA (bovine serum albumin) (Bos taurus, UniProt P02769 P02769:25-607); test: SPR; specificity control; details: tags: Nippon Gene
[3] = target: HA1Aichi (hemagglutinin HA1) (Influenza A virus A/Aichi/2/1968, UniProt P03437 SEQ:17-345); test: SPR; details: tags: Sino Biological #11707-V08H1
[4] = target: T1, HA1Aichi (hemagglutinin HA1) (Influenza A virus A/Aichi/2/1968, UniProt P03437 SEQ:17-345); test: SPR; details: tags: Sino Biological #11707-V08H1; remark: listed apart in the source
[5] = target: T1, HA1Aichi (hemagglutinin HA1); test: SPR; negative control; details: tags: Sino Biological #11707-V08H1

Chain of BSA (bovine serum albumin) (P02769 25-607, one chain of several): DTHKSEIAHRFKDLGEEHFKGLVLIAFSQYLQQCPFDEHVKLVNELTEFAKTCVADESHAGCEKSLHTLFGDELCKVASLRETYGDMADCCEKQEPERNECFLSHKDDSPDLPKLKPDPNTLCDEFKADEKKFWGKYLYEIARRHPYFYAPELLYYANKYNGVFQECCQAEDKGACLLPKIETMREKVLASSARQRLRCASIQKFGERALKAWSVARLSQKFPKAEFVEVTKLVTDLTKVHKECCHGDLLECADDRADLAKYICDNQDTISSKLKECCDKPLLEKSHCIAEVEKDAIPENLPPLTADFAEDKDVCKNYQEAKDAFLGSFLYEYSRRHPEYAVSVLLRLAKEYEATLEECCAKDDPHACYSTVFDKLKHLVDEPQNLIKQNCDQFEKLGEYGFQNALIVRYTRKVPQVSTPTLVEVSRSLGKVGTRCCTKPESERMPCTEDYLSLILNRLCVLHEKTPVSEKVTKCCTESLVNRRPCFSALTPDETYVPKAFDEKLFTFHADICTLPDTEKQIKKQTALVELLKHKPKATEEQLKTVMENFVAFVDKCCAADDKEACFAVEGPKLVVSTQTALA
Chain of MIF (macrophage migration inhibitory factor) (P14174 2-115, one chain of several): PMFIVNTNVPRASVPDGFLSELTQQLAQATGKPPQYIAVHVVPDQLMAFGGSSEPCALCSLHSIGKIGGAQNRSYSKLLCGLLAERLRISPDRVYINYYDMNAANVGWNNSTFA

Binder	binding result [1]	binding result [2]	binding result [3]	further results
RHA0002 (ssDNA, 3' poly(dA)24 tail for SPR) DNA: GGTTAGCCCGTCCCGAGATAACTCGGGGTGTTTGATGGTTTGGTCTGGTTGGCTTAACACACGGCGGCTGTAG	no binding	no binding	–	–
RHA0006 (ssDNA, 3' poly(dA)24 tail for SPR) DNA: GGTTAGCCCGTCCCGAGATAACTCGGTGTGTTGGGTTTGGGTTGGGTTGGGTCTTAACACACGGCGGCTGTAG	no binding	no binding	–	–
RHA0111 (ssDNA, 3' poly(dA)24 tail for SPR) DNA: CCTGCACCCAGTGTCCCGTGCTCCGGGGGTTGGGCGTGGTGGGTCTGTCGGGTTTCGGACGGAGAGGAGGACGG	no binding	no binding	–	–
RHA0127 (ssDNA, 3' poly(dA)24 tail for SPR) DNA: CCTGCACCCAGTGTCCCTGGGTCGGCTAATTTGGCATTTGGGGTGGTTTGGGGGGGGGACGGAGAGGAGGACGG	no binding	no binding	–	–
GTGTTTGATGGTTTGGTCTGGTTGGCTTAACAC (ssDNA, 3' poly(dA)24 tail for SPR)	no binding	no binding	–	–
GGGTTTGGGTTGGGTTGGG (ssDNA, 3' poly(dA)24 tail for SPR) [RHA0006_s19]	no binding	no binding	–	–
GTGTTTGATGGTTTGGTCTGGTTGGCTTAACAC (ssDNA)	–	–	binds	–
GGGTTTGGGTTGGGTTGGGTTTTTGGGTTTGGGTTGGGTTGGG (ssDNA, 3' poly(dA)24 tail for SPR; 3' biotin (detection) or 3' amino (capture) for ELAA) [RHA0006_s19_d5]	–	–	–	binding result [4]: binds
RHA1634_s60 (ssDNA) DNA: GGGCACCCTCTCGCTGTACGGTTGATGCACGTTTCTTTCTCTTTATATTGCTGGGTGCCC	–	–	binds	–
RHA1635_s62 (ssDNA) DNA: GGGGCCCACCCTCTCGCTGGCGGCTCTGTTCTGTTCTCGTCTCCTTGATTTCTGTGGGCCCC	–	–	binds	–
TTGGGGTTATTTTGGGAGGGCGGGGGTT (ssDNA) [RHA0385_s28]	–	–	binds	–
RHA0471_s51 (ssDNA) DNA: TCCTCGTTGGGGGTGGTGGTGGGTTTCGGTTCATGGGTGGGACGGAGAGGA	–	–	binds	–
CGGCGTTTGGTTGGCGTGAACCATTTTTAAGTT (ssDNA, 3' poly(dA)24 tail for SPR; 3' biotin for ELAA) [Control]	–	–	–	binding result [5]: no binding

From patent US20150167106 (NEC Solution Innovators, Ltd., published 2015)
